# Values of other authors, collected in article PMC4452390.
# Biological target: EGFR (Homo sapiens) (UniProt P00533)
substance,measurement,value
EGF (from UniProt P01133),Kd,3 nM
